Reference: patent US20200339678A1 (RIGEL PHARMACEUTICALS, published 2020)

T1: His-tagged recombinant Human TIGIT (human, UniProt Q495A1 22-141)
T1 construct: also called VSIG9; VSTM3; not shown: His tag
T1 sequence (looked up): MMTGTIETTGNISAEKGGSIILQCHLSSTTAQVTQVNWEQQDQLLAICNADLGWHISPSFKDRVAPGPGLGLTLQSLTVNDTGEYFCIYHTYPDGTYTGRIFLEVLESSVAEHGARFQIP

T2: His-tagged recombinant Mouse TIGIT (mouse, UniProt P86176 29-148, limits assumed)
T2 construct: not shown: His tag
T2 sequence (looked up): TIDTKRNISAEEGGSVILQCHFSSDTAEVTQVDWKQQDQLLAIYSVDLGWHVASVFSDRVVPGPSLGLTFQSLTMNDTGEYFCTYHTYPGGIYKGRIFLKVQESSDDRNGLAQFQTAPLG


Columns and labels:
[1] = biological target: T1, His-tagged recombinant Human TIGIT; assay: ELISA, coated His-tagged human TIGIT
Experimental: (§1) Binding affinities for antigen binding to anti-TIGIT monoclonal antibodies were determined by ELISA. […] Antibodies to be tested were diluted to 1 μM in PBS buffer containing 1% BSA and diluted 3-fold in a 10-point curve. […] Detection of the secondary antibody was determined using streptavidin-HRP and TMB reagent. All assays were performed at room temperature. Curve-fitting software was used to determine the EC₅₀ for each antibody.

[2] = biological target: T2, His-tagged recombinant Mouse TIGIT; assay: ELISA, coated His-tagged mouse TIGIT
Experimental: as §1

Binder | EC50 [1] [nM] | EC50 [2] [nM]
Ab23 (Fab, V domains shown, ARE set) VH: EVQLLESGGGLVQPGGSLRLSCAASGFTFSSYAMSWVRQAPGKGLEWVARINSDSSNTYYADSVKGRFTISRDNSKNTLYLQMNSLRAEDTAVYYCAREPYSYWLDYWGQGTLVTVSS VL: not shown | 289 | 74.4
Ab148 (Fab, V domains shown, ARV set) VH: EVQLLESGGGLVQPGGSLRLSCAASGFTFSSYSMSWVRQAPGKGLEWVASIKGSAGYIYYADSVKGRFTISRDNSKNTLYLQMNSLRAEDTAVYYCARVPYDYWMDYWGQGTLVTVSS VL: not shown | 168 | 16.4
Ab95 (Fab, V domains shown, ARE set) VH: EVQLLESGGGLVQPGGSLRLSCAASGFTFSSYAMSWVRQAPGKGLEWVASIKSSTGYIGYADSVKGRFTISRDNSKNTLYLQMNSLRAEDTAVYYCAREPYSYWLDYWGQGTLVTVSS VL: not shown | 357 | 100
Ab145 (Fab, V domains shown, ARE set) VH: EVQLLESGGGLVQPGGSLRLSCAASGFTFSSYAMSWVRQAPGKGLEWVASISSSTGYTSYADSVKGRFTISRDNSKNTLYLQMNSLRAEDTAVYYCAREPYSYWLDYWGQGTLVTVSS VL: not shown | 232 | 50.4
Ab72 (Fab, V domains shown, ARV set) VH: EVQLLESGGGLVQPGGSLRLSCAASGFTFSSYSMHWVRQAPGKGLEWVAAIKSDAGTSGYADSVKGRFTISRDNSKNTLYLQMNSLRAEDTAVYYCARVPYDYWIDYWGQGTLVTVSS VL: not shown | 81.7 | 235
Ab74 (Fab, V domains shown, ARV set) VH: EVQLLESGGGLVQPGGSLRLSCAASGFTFSSYSMHWVRQAPGKGLEWVASISSNAGTTGYADSVKGRFTISRDNSKNTLYLQMNSLRAEDTAVYYCARVPYDYWIDYWGQGTLVTVSS VL: not shown | 177 | 41.9
Ab76 (Fab, V domains shown, ARV set) VH: EVQLLESGGGLVQPGGSLRLSCAASGFTFDSYSMHWVRQAPGKGLEWVSAISGSGGSTYYADSVKGRFTISRDNSKNTLYLQMNSLRAEDTAVYYCARVPYSVWIDYWGQGTLVTVSS VL: not shown | 68.1 | 65.7
Ab10 (Fab, V domains shown, ARG set) VH: EVQLLESGGGLVQPGGSLRLSCAASGFTFSSYSMNWVRQAPGKGLEWVAYIKSNSGTKGYADSVKGRFTISRDNSKNTLYLQMNSLRAEDTAVYYCARGPYDYWLDYWGQGTLVTVSS VL: not shown | 101 | 40.7
Ab191 (Fab, V domains shown, ARV set) VH: EVQLLESGGGLVQPGGSLRLSCAASGFTFSSYSMHWVRQAPGKGLEWVSSIKSSASYSSYADSVKGRFTISRDNSKNTLYLQMNSLRAEDTAVYYCARVPYDYWMDYWGQGTLVTVSS VL: not shown | 44.9 | 104
Ab54 (Fab, V domains shown, ARE set) VH: EVQLLESGGGLVQPGGSLRLSCAASGFTFSSYAMSWVRQAPGKGLEWVSSIKSNTGSTSYADSVKGRFTISRDNSKNTLYLQMNSLRAEDTAVYYCAREPYSYWLDYWGQGTLVTVSS VL: not shown | 91.9 | 21.5
Ab179 (Fab, V domains shown, ARE set) VH: EVQLLESGGGLVQPGGSLRLSCAASGFTFSSYAMSWVRQAPGKGLEWVASIKSNTGSTYYADSVKGRFTISRDNSKNTLYLQMNSLRAEDTAVYYCAREPYSVWLDYWGQGTLVTVSS VL: not shown | 155 | 228
Ab172 (Fab, V domains shown, ARV set) VH: EVQLLESGGGLVQPGGSLRLSCAASGFTFSSYSMHWVRQAPGKGLEWVSSIKSSAGYTYYADSVKGRFTISRDNSKNTLYLQMNSLRAEDTAVYYCARVPYDYWIDYWGQGTLVTVSS VL: not shown | 83.2 | 108

Now those with a lower EC50 [1], led by results:

EC50 [1] [nM] | EC50 [2] [nM] | Binder
43.1 | 59.2 | Ab13 (Fab, V domains shown, ARV set) VH: EVQLLESGGGLVQPGGSLRLSCAASGFTFDSYSMHWVRQAPGKGLEWVSSINSNGGYKYYADSVKGRFTISRDNSKNTLYLQMNSLRAEDTAVYYCARVPYDYWIDYWGQGTLVTVSS VL: not shown
40.3 | 181 | Ab1 (Fab, V domains shown, ARV set; also called clone Ab1) VH: EVQLLESGGGLVQPGGSLRLSCAASGFTFSSYAMHWVRQAPGKGLEWVSGISSNGGSTSYADSVKGRFTISRDNSKNTLYLQMNSLRAEDTAVYYCARVPYSVWIDYWGQGTLVTVSS VL: not shown
34.9 | 361 | Ab47 (Fab, V domains shown, ARG set) VH: EVQLLESGGGLVQPGGSLRLSCAASGFTFSSYSMNWVRQAPGKGLEWVASIKSSSSYTSYADSVKGRFTISRDNSKNTLYLQMNSLRAEDTAVYYCARGPYDTWLDYWGQGTLVTVSS VL: not shown
34.3 | 14.1 | Ab124 (Fab, V domains shown, ARV set) VH: EVQLLESGGGLVQPGGSLRLSCAASGFTFSSYSMHWVRQAPGKGLEWVASIKGSASYSYYADSVKGRFTISRDNSKNTLYLQMNSLRAEDTAVYYCARVPYDYWMDYWGQGTLVTVSS VL: not shown
32.8 | 234 | Ab155 (Fab, V domains shown, ARE set) VH: EVQLLESGGGLVQPGGSLRLSCAASGFTFSSYSMNWVRQAPGKGLEWVAAISGDTGTSGYADSVKGRFTISRDNSKNTLYLQMNSLRAEDTAVYYCAREPYSVWLDYWGQGTLVTVSS VL: not shown
27.6 | 58 | Ab49 (Fab, V domains shown, ARG set) VH: EVQLLESGGGLVQPGGSLRLSCAASGFTFSSYSMHWVRQAPGKGLEWVASIKSSGGYKSYADSVKGRFTISRDNSKNTLYLQMNSLRAEDTAVYYCARGPYDVWIDYWGQGTLVTVSS VL: not shown
19.8 | 64.8 | Ab19 (Fab, V domains shown, ARE set) VH: EVQLLESGGGLVQPGGSLRLSCAASGFTFSSYSMSWVRQAPGKGLEWVANIKSNSGYTYYADSVKGRFTISRDNSKNTLYLQMNSLRAEDTAVYYCAREPYSVWLDYWGQGTLVTVSS VL: not shown
14.6 | 11.5 | Ab7 (Fab, V domains shown, ARE set) VH: EVQLLESGGGLVQPGGSLRLSCAASGFTFSSYAMSWVRQAPGKGLEWVASIKSSSSSISYADSVKGRFTISRDNSKNTLYLQMNSLRAEDTAVYYCAREPYSYWLDYWGQGTLVTVSS VL: not shown
13.8 | 41.8 | Ab48 (Fab, V domains shown, ARG set; also called clone Ab48) VH: EVQLLESGGGLVQPGGSLRLSCAASGFTFSSYSMNWVRQAPGKGLEWVANIKSSGSSTSYADSVKGRFTISRDNSKNTLYLQMNSLRAEDTAVYYCARGPYDVWMDYWGQGTLVTVSS VL: not shown
11 | 9.5 | Ab41 (Fab, V domains shown, ARV set) VH: EVQLLESGGGLVQPGGSLRLSCAASGFTFSSYSMHWVRQAPGKGLEWVASIKSSGGYISYADSVKGRFTISRDNSKNTLYLQMNSLRAEDTAVYYCARVPYDYWMDYWGQGTLVTVSS VL: not shown
9.1 | 5.1 | Ab22 (Fab, V domains shown, ARV set) VH: EVQLLESGGGLVQPGGSLRLSCAASGFTFSSYSMHWVRQAPGKGLEWVASIKSSGGSKYYADSVKGRFTISRDNSKNTLYLQMNSLRAEDTAVYYCARVPYDYWMDYWGQGTLVTVSS VL: not shown
8.2 | 95 | Ab46 (Fab, V domains shown, ARV set) VH: EVQLLESGGGLVQPGGSLRLSCAASGFTFSSYSMHWVRQAPGKGLEWVAGIWSSGGTTSYADSVKGRFTISRDNSKNTLYLQMNSLRAEDTAVYYCARVPYGVWMDYWGQGTLVTVSS VL: not shown
7.5 | 28.7 | Ab28 (Fab, V domains shown, ARV set) VH: EVQLLESGGGLVQPGGSLRLSCAASGFTFSSYSMHWVRQAPGKGLEWVANINSNGGNTGYADSVKGRFTISRDNSKNTLYLQMNSLRAEDTAVYYCARVPYDVWMDYWGQGTLVTVSS VL: not shown
7.2 | 331 | Ab131 (Fab, V domains shown, ARV set) VH: EVQLLESGGGLVQPGGSLRLSCAASGFTFSSYAMSWVRQAPGKGLEWVSDIKSSAGSTSYADSVKGRFTISRDNSKNTLYLQMNSLRAEDTAVYYCARVPYSVWIDYWGQGTLVTVSS VL: not shown
5 | 8.4 | Ab15 (Fab, V domains shown, ARV set) VH: EVQLLESGGGLVQPGGSLRLSCAASGFTFSSYSMHWVRQAPGKGLEWVASIWSNSGNTGYADSVKGRFTISRDNSKNTLYLQMNSLRAEDTAVYYCARVPYDYWMDYWGQGTLVTVSS VL: not shown
4.3 | 14.7 | Ab32 (Fab, V domains shown, ARV set) VH: EVQLLESGGGLVQPGGSLRLSCAASGFTFSSYSMHWVRQAPGKGLEWVANINSNGGNTGYADSVKGRFTISRDNSKNTLYLQMNSLRAEDTAVYYCARVPYDVWMDYWGQGTLVTVSS VL: not shown
3.4 | 5.7 | Ab143 (Fab, V domains shown, ARV set; also called clone Ab143) VH: EVQLLESGGGLVQPGGSLRLSCAASGFTFSSYSMHWVRQAPGKGLEWVAAINSNAGSSSYADSVKGRFTISRDNSKNTLYLQMNSLRAEDTAVYYCARVPYGVWMDYWGQGTLVTVSS VL: not shown
